Source: US20220396612A1 (UNIVERSIT DE TOURS, published 2022)

T1: virus-like particles (VLPs) of BK polyomavirus VP-1 protein, serotype II (BK virus (BKPyV), serotype II, UniProt P14996 1-362)
T1 construct: native VLPs; also called VLP II
T1 chain: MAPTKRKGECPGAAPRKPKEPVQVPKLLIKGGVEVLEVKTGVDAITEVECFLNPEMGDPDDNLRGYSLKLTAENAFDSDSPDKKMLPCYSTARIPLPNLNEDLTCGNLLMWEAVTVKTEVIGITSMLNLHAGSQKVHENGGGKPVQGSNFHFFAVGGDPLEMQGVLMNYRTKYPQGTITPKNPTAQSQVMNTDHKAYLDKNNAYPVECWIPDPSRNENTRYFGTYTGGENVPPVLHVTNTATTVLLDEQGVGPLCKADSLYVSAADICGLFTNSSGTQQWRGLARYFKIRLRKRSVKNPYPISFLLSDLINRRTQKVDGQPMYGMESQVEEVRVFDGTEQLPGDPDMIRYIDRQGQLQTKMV

T2: virus-like particles (VLPs) of BK polyomavirus VP-1 protein, serotype Ib2 (BK virus (BKPyV), serotype Ib2, PA …, UniProt P03088 1-362)
T2 construct: native VLPs; also the immunogen; also called VLP Ib2; BK Ib2
T2 chain: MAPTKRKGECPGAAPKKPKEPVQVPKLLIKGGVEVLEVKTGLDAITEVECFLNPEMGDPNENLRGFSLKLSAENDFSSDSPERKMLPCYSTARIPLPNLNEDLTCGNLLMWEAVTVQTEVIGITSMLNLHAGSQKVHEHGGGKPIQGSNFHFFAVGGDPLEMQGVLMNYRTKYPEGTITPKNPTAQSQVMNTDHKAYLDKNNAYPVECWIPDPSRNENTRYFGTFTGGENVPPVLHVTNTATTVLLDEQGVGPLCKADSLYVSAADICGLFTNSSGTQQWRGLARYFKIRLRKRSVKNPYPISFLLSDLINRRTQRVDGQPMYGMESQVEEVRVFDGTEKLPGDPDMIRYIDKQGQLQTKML

T3: virus-like particles (VLPs) of BK polyomavirus VP-1 protein, serotype Ia (BK virus (BKPyV), serotype Ia, UniProt P03088 1-361)
T3 construct: self-assembled native VLPs coated on ELISA plates; also called VLP Ia; BKV VP-1, serotype Ia
T3 chain: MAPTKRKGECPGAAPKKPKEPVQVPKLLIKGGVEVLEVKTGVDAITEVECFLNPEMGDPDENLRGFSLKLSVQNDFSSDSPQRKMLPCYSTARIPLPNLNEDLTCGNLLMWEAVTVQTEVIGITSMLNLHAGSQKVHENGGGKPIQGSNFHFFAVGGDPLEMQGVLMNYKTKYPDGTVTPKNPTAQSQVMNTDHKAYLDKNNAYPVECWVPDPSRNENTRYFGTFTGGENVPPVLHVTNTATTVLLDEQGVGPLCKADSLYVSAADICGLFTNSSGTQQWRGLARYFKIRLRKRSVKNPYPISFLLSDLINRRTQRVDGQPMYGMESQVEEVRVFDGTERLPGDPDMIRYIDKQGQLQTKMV

T4: virus-like particles (VLPs) of BK polyomavirus VP-1 protein, serotype IV (BK virus (BKPyV), serotype IV, UniProt P14996 1-362)
T4 construct: native VLPs; also called VLP IV
T4 chain: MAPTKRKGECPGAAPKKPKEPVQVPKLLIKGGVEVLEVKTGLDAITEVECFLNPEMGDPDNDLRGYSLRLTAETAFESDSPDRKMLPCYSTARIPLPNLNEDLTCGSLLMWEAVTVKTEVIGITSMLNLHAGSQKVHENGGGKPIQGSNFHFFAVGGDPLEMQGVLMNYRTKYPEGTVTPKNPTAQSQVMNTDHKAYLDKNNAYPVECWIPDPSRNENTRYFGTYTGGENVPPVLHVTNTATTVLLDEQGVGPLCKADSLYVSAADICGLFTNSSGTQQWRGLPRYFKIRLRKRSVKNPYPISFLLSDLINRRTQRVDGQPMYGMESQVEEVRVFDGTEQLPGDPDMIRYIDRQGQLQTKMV

T5: virus-like particles (VLPs) of BK polyomavirus VP-1 protein, serotype III (BK virus (BKPyV), serotype III, UniProt P14996 1-362)
T5 construct: native VLPs; also called VLP III
T5 chain: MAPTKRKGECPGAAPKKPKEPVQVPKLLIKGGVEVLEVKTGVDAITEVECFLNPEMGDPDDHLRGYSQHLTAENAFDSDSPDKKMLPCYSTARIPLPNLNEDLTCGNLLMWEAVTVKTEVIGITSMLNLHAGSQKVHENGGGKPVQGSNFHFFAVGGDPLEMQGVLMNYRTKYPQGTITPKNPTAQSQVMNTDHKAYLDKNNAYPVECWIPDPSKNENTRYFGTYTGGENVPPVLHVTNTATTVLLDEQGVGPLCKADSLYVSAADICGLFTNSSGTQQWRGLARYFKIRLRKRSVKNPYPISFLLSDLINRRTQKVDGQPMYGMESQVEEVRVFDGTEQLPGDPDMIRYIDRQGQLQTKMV


Key:
[1] = target: T1, virus-like particles (VLPs) of BK …; assay: ELISA on not denatured VLP (threshold OD>0.5)
Protocol: (§1) The wells were then blocked for 1 hour at +37° C. with a PBS/SVF mixture. After dilution in a dilution buffer containing SVF, PBS and Tween® 20, the individual culture supernatants or purified antibodies were added for 1 hour at +37° C. The wells were washed four times in a row with Wash Buffer and a secondary anti-mouse peroxidase antibody was added to the 1/2000 dilution for 1 hour at +37° C. The wells were washed again four times in a row and the substrate was added for 30 minutes at room temperature. A stop solution was added and then each well was read by measuring the absorbance at 492 nm with a spectrophotometer. The value obtained for the average of the control wells (PBS in the first step) was subtracted from the optical density values obtained for each well (detection threshold: OD>0.5).

[2] = target: T2, virus-like particles (VLPs) of BK …; assay: ELISA on not denatured VLP (threshold OD>0.5)
Protocol: as §1

[3] = target: T3, virus-like particles (VLPs) of BK …; assay: ELISA on not denatured VLP (threshold OD>0.5)
Protocol: as §1

[4] = target: T4, virus-like particles (VLPs) of BK …; assay: ELISA on not denatured VLP (threshold OD>0.5)
Protocol: as §1

[5] = target: T6, virus-like particles (VLPs) of JC polyomavirus VP-1 protein (JC virus (JCPyV), UniProt P03089 1-354, Assembled into virus-like particles (many VP-1 copies); the letters give one VP-1 chain.); assay: ELISA on coated VLP (detection limit OD>0.5)
T6 construct: Expressed in insect cells by baculovirus; VLPs coated on ELISA plates; also called JCPyV VLPs; JCPyV
Protocol: (§2) To do this, the VLPs produced were deposited at a concentration of 1 μg/mL in PBS and incubated overnight at +4° C. The wells were then blocked for 1 h at +37° C. with a PBS/FCS (phosphate-buffered saline/fetal calf serum) mixture. After dilution in a dilution buffer containing FCS, PBS and Tween® 20, the various hybridoma culture supernatants were added for 1 h at +37° C. The wells were washed four times in a row with Wash Buffer and a secondary anti-mouse antibody coupled to peroxidase was added to the 1:2000 dilution for 1 h at +37° C. The wells were washed four more times and the substrate (OPD (ortho phenylene diamine)+H₂O₂) was added for 30 min at room temperature. A stop solution (H₂SO₄ 4N) was then added and each well was read by measuring the absorbance at 492 nm with a spectrophotometer. The value obtained for the average of the control wells (PBS in the first step) is subtracted from the optical density values obtained for each well.

[6] = target: T2, virus-like particles (VLPs) of BK …; assay: ELISA on coated VLP (detection limit OD>0.5)
Protocol: as §2

[7] = target: T1, virus-like particles (VLPs) of BK …; assay: ELISA on coated VLP;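 further: hybridoma culture supernatants (mouse antibodies) tested on wells coated with 1 µg/mL VLPs, peroxidase anti-mouse detection with OPD, background from PBS-coated control wells subtracted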
Protocol: as §2

[8] = target: T2, virus-like particles (VLPs) of BK …; assay: ELISA on coated VLP;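 further: hybridoma culture supernatants (mouse antibodies) tested on wells coated with 1 µg/mL VLPs, peroxidase anti-mouse detection with OPD, background from PBS-coated control wells subtracted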
Protocol: as §2

[9] = target: T3, virus-like particles (VLPs) of BK …; assay: ELISA on coated VLP;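 further: hybridoma culture supernatants (mouse antibodies) tested on wells coated with 1 µg/mL VLPs, peroxidase anti-mouse detection with OPD, background from PBS-coated control wells subtracted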
Protocol: as §2

[10] = target: T5, virus-like particles (VLPs) of BK …; assay: ELISA on coated VLP;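 further: hybridoma culture supernatants (mouse antibodies) tested on wells coated with 1 µg/mL VLPs, peroxidase anti-mouse detection with OPD, background from PBS-coated control wells subtracted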
Protocol: as §2

[11] = target: T4, virus-like particles (VLPs) of BK …; assay: ELISA on coated VLP
Protocol: as §2

[12] = target: T6, virus-like particles (VLPs) of JC …; assay: ELISA on coated JCPyV VLPs

T6 sequence (P03089 whole entry): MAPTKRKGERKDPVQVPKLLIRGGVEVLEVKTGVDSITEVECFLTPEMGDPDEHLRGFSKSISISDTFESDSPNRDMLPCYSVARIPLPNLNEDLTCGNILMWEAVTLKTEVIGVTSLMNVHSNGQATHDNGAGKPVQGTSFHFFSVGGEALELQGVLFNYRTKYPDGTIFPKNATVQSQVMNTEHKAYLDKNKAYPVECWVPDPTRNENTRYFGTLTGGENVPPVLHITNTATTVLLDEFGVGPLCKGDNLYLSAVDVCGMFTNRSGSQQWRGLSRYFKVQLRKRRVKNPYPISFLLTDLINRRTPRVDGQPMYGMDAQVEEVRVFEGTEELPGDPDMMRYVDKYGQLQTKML

| Binder | OD 492 nm [1] [OD] | OD 492 nm [2] [OD] | OD 492 nm [3] [OD] | OD 492 nm [4] [OD] | OD 492 nm [5] [OD] | OD 492 nm [6] [OD] | OD 492 nm [7] [OD] | OD 492 nm [8] [OD] | OD 492 nm [9] [OD] | OD 492 nm [10] [OD] | OD 492 nm [11] [OD] | binding result [12] |
| --- | --- | --- | --- | --- | --- | --- | --- | --- | --- | --- | --- | --- |
| monoclonal antibody ‘9B1’ derived from hybridoma 9B1 (antibody, V domains shown, also called ‘91B1’) VH: DVQLQESGPGLVKPSQSLSLTCSVTGYSITSGYYWNWIRQFPGNKLEWMGYISYDGSNNYNPSLKNRISITRDTSKNQFFLKLNSVTTEDTATYYCARVDGNSWYFDVWGAGTTVTVSS VL: DIQMTQSSSSFSVSLGDRVTITCKASEDIYNRLAWYQQKPGNAPRLLISGATSLETGVPSRFSGSGSGKDYTLSITSLQTEDVATYYCQQYWSILLTFGAGTKLELK | 1.07 | 1.41 | 4.21 | 2.12 | 0.119 | 1.41 | 1.75 | 3.3 | 3.13 | 1.74 | 2.52 | no binding (tested: detection limit: OD>0.5) |
| monoclonal antibody ‘14D6’ derived from hybridoma 14D6 (antibody, V domains shown) VH: DVQLQESGPGLVKPSQSLSLTCSVTGYSITSGYYWNWIRQFPGNKLEWMGYISYDGSNNYNPSLKNRISITRDTSKNQFFLKLNSVTTEDTATYYCARWVGDWYFDVWGAGTTVTVSS VL: DIVLTQSPASLAVSLGQRATISCRASKSVSPSGYSYMHWYQQKPGQPPKLLIYLASNLESGVPARFSGSGSGTDFTLNIHPVEEEDAATYYCQHSRELPLTFGAGTKLELK | 1.66 | 1.55 | 4.04 | 2.63 | 0.112 | 1.55 | 3.08 | 3.24 | 3.24 | 2.55 | 2.62 | no binding (tested: detection limit: OD>0.5) |
